B1: mouse anti-human IL-12 antibody (clone 22-4), original (unmodified) (Fab, V domains shown, not shown: a dimerising Fc or GST)
VH: EVQLQESGPSLVKPSQTLSLTCSVTGDSITSGYWNWIRKFPGNKLEYMGYISYSGSTYYNPSLKSRISITRDTSKNQNYLQLNSVTTEDTATYYCARRDTTVVVPYYFDYWGQGTTLTVSS
VL: DIVMTQSHKFMSTSVGDRVSITCKASQDVGTAVAWYQQKPGQSPKLLIYWASTRHTGVPGRFTGSGSGTDFTLTINNVQSEDLADYFCQQYSSYPLTFGAGTKLELKR
B2: R3 variant of anti-IL-12 antibody (clone 22-4) (Fab, V domains shown, not shown: a dimerising Fc or GST)
VH: EVQLQESGPSLVKPSQTLSLTCSVTGDSITSGYWNWIRKFPGNKLEYMGYISYSGSTYYNPSLKSRISITRDTSKNQNYLQLNSVTTEDTATYYCARRDTTVVVPYYFDYWGQGTTLTVSS
VL: DIVMTQSHKFMSTSVGDRVSITCKASQDVGTAVAWYQQKPGQSPKLLIYWASTRHTGVPGRFRGRGRGTDFTLTINNVQSEDLADYFCQQYSSYPLTFGAGTKLELKR
B3: R4 variant of anti-IL-12 antibody (clone 22-4) (Fab, V domains shown, not shown: a dimerising Fc or GST)
VH: EVQLQESGPSLVKPSQTLSLTCSVTGDSITSGYWNWIRKFPGNKLEYMGYISYSGSTYYNPSLKSRISITRDTSKNQNYLQLNSVTTEDTATYYCARRDTTVVVPYYFDYWGQGTTLTVSS
VL: DIVMTQSHKFMSTSVGDRVSITCKASQDVGTAVAWYQQKPGQSPKLLIYWASTRHTGVPGRFRGRGRGTRFTLTINNVQSEDLADYFCQQYSSYPLTFGAGTKLELKR

How the values were obtained:
[1] = molecular target: human IL 12 protein (Recombinant His, C-terminus) (aa23-328) (LS-G134297-50: LSBio, Inc.) (human) (UniProt P29460); experiment: SPR (Biacore 8K), antigen immobilized on CM4 chip, antibody as analyte
human IL 12 protein (Recombinant His, C-terminus) (aa23-328) (LS-G134297-50: LSBio, Inc.) (human), sequence (P29460 23-328, form in doubt): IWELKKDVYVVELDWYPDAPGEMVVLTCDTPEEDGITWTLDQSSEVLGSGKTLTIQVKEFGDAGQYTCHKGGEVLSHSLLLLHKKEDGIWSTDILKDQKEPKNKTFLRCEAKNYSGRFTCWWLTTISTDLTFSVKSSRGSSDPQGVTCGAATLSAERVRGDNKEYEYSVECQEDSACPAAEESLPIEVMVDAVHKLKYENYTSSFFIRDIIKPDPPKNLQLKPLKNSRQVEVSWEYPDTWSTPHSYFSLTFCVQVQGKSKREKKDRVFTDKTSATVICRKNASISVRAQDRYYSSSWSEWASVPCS

[2] = molecular target: human IL 12 protein (Recombinant His, C-terminus) (aa23-328) (LS-G134297-50: LSBio, Inc.) (human) (UniProt P29460); experiment: SPR (Biacore 8K); affinity ratio with the original antibody as 1.0

Binder | Kd [1] [nM] | KD ratio [2]
B1 | 10.3 | 1
B2 | 0.497 | 20.8
B3 | 0.245 | 42.2
